B1: 107_A01 Fab (His/tri-FLAG tagged, hinged) (Fab, V domains shown)
VH: QMQLVQSGAEVKKPGAPVKVSCKVSGYTFTDYYMHWVQQAPGKGLEWMGLVDPEDGETIYAEKFQGRVTITADTSTDTAYMELSSLRSEDTAVYYCATDATTPYWGMVSWGQGTLVTVSS
VL: DIQMTQSPSSLSASVGDRVTITCQASQDISNYLNWYQQKPGRAPKVLIYDASNLETGVPSRFSGSGSGTEFTLTISNLRPDDFATYYCQQGDSFPLTFGGGTKVEIK
notes: Fab from pBIOCAM7-3F, hinged, hexahistidine and tri-FLAG tags on the heavy chain
B2: 107_A07 Fab (His/tri-FLAG tagged, hinged) (Fab, V domains shown)
VH: QMQLVQSGAEVKKPGAPVKVSCKVSGYTFTDYYMHWVQQAPGKGLEWMGLVDPEDGETIYAEKFQGRVTITADTSTDTAYMELSSLRSEDTAVYYCATDATTPYWGMMWWGQGTLVTVSS
VL: DIQMTQSPSSLSASVGDRVTITCQASQDISNYLNWYQQKPGRAPKVLIYDASNLETGVPSRFSGSGSGTEFTLTISNLRPDDFATYYCQQGDSFPLTFGGGTKVEIK
notes: Fab from pBIOCAM7-3F in HEK293 cells, hinged format (Leu-Glu after VH), hexahistidine and tri-FLAG tags on the heavy chain
B3: 107_A08 Fab (His/tri-FLAG tagged, hinged) (Fab, V domains shown)
VH: QMQLVQSGAEVKKPGAPVKVSCKVSGYTFTDYYMHWVQQAPGKGLEWMGLVDPEDGETIYAEKFQGRVTITADTSTDTAYMELSSLRSEDTAVYYCATDATTPYWGMVEWGQGTLVTVSS
VL: DIQMTQSPSSLSASVGDRVTITCQASQDISNYLNWYQQKPGRAPKVLIYDASNLETGVPSRFSGSGSGTEFTLTISNLRPDDFATYYCQQGDSFPLTFGGGTKVEIK
notes: as for B1
B4: 110_A01 Fab (His/tri-FLAG tagged, hinged) (Fab, V domains shown)
VH: QMQLVQSGAEVKKPGAPVKVSCKVSGYTFTDYYMHWVQQAPGKGLEWMGLVDPEDGETIYAEKFQGRVTITADTSTDTAYMELSSLRSEDTAVYYCATDATTPYWFPYLWGQGTLVTVSS
VL: DIQMTQSPSSLSASVGDRVTITCQASQDISNYLNWYQQKPGRAPKVLIYDASNLETGVPSRFSGSGSGTEFTLTISNLRPDDFATYYCQQGDSFPLTFGGGTKVEIK
notes: as for B1
B5: 110_A06 Fab (His/tri-FLAG tagged, hinged) (Fab, V domains shown)
VH: QMQLVQSGAEVKKPGAPVKVSCKVSGYTFTDYYMHWVQQAPGKGLEWMGLVDPEDGETIYAEKFQGRVTITADTSTDTAYMELSSLRSEDTAVYYCATDATTPYWGMQLWGQGTLVTVSS
VL: DIQMTQSPSSLSASVGDRVTITCQASQDISNYLNWYQQKPGRAPKVLIYDASNLETGVPSRFSGSGSGTEFTLTISNLRPDDFATYYCQQGDSFPLTFGGGTKVEIK
notes: as for B1
B6: 110_A10 Fab (His/tri-FLAG tagged, hinged) (Fab, V domains shown)
VH: QMQLVQSGAEVKKPGAPVKVSCKVSGYTFTDYYMHWVQQAPGKGLEWMGLVDPEDGETIYAEKFQGRVTITADTSTDTAYMELSSLRSEDTAVYYCATDATTPYWGMQTWGQGTLVTVSS
VL: DIQMTQSPSSLSASVGDRVTITCQASQDISNYLNWYQQKPGRAPKVLIYDASNLETGVPSRFSGSGSGTEFTLTISNLRPDDFATYYCQQGDSFPLTFGGGTKVEIK
notes: as for B1
B7: 110_A12 Fab (His/tri-FLAG tagged, hinged) (Fab, V domains shown)
VH: QMQLVQSGAEVKKPGAPVKVSCKVSGYTFTDYYMHWVQQAPGKGLEWMGLVDPEDGETIYAEKFQGRVTITADTSTDTAYMELSSLRSEDTAVYYCATDATTPYWFPREWGQGTLVTVSS
VL: DIQMTQSPSSLSASVGDRVTITCQASQDISNYLNWYQQKPGRAPKVLIYDASNLETGVPSRFSGSGSGTEFTLTISNLRPDDFATYYCQQGDSFPLTFGGGTKVEIK
notes: as for B1
B8: 111_D06 Fab (His/tri-FLAG tagged, hinged) (Fab, V domains shown)
VH: QMQLVQSGAEVKKPGAPVKVSCKVSGYTFTDYYMHWVQQAPGKGLEWMGLVDPEDGETIYAEKFQGRVTITADTSTDTAYMELSSLRSEDTAVYYCATDATTPYWGMWQWGQGTLVTVSS
VL: DIQMTQSPSSLSASVGDRVTITCQASQDISNYLNWYQQKPGRAPKVLIYDASNLETGVPSRFSGSGSGTEFTLTISNLRPDDFATYYCQQGDSFPLTFGGGTKVEIK
notes: as for B1

What was measured:
[1] = molecular target: human MET (c-Met) on cells (SKOV-3, BxPC3) (human, UniProt P08581 25-1390); assay: cell-based or functional assay
human MET (c-Met) on cells (SKOV-3, BxPC3), sequence (P08581 25-1390): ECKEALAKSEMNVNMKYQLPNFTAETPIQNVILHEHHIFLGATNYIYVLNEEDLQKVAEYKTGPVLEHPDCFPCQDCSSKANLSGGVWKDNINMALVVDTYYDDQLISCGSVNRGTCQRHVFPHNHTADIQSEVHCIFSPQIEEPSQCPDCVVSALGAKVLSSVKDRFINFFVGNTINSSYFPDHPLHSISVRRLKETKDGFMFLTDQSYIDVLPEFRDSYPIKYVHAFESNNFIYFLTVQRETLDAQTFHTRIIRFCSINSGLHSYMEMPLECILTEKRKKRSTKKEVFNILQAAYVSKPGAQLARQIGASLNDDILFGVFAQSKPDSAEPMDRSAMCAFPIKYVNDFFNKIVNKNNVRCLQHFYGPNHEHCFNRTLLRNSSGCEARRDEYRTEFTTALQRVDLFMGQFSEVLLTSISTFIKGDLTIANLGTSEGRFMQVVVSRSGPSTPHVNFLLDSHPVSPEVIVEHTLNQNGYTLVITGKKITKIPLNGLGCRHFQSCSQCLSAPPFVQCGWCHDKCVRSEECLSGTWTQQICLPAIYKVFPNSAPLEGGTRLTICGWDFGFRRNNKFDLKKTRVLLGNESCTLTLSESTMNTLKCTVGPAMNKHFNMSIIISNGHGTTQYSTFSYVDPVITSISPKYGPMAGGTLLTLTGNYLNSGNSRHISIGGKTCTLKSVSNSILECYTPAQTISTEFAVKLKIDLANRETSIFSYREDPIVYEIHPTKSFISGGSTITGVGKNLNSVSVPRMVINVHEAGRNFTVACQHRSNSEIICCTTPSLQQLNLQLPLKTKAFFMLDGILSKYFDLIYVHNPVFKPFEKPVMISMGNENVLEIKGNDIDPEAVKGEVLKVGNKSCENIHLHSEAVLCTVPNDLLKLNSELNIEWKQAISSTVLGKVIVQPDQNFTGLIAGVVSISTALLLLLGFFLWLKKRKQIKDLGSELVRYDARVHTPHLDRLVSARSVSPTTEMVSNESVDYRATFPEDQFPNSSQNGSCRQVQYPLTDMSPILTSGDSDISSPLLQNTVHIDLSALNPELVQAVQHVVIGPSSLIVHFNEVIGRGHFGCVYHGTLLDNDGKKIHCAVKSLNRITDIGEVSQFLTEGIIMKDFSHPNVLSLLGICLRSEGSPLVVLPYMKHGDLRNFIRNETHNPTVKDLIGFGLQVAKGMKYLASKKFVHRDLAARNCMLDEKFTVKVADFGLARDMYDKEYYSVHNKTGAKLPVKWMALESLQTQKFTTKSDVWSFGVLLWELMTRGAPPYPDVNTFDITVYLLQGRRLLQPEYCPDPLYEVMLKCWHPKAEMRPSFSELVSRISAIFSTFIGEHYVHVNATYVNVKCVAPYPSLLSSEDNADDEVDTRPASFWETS

[2] = molecular target: T1, MET928 (cMET protein derived from construct 25-928) (human, UniProt P08581 25-928); assay: Biacore SPR, MET-928 on chip, Fab format
T1 construct: MET ectodomain, residues 1-24 are the leader; produced in Lec 8 cells; background text says the ectodomain is furin-cleaved into alpha (25-307) and beta chains; biotinylated form used in selections; also called MET928 extracellular domain; Met extracellular domain
T1 sequence (P08581 25-928): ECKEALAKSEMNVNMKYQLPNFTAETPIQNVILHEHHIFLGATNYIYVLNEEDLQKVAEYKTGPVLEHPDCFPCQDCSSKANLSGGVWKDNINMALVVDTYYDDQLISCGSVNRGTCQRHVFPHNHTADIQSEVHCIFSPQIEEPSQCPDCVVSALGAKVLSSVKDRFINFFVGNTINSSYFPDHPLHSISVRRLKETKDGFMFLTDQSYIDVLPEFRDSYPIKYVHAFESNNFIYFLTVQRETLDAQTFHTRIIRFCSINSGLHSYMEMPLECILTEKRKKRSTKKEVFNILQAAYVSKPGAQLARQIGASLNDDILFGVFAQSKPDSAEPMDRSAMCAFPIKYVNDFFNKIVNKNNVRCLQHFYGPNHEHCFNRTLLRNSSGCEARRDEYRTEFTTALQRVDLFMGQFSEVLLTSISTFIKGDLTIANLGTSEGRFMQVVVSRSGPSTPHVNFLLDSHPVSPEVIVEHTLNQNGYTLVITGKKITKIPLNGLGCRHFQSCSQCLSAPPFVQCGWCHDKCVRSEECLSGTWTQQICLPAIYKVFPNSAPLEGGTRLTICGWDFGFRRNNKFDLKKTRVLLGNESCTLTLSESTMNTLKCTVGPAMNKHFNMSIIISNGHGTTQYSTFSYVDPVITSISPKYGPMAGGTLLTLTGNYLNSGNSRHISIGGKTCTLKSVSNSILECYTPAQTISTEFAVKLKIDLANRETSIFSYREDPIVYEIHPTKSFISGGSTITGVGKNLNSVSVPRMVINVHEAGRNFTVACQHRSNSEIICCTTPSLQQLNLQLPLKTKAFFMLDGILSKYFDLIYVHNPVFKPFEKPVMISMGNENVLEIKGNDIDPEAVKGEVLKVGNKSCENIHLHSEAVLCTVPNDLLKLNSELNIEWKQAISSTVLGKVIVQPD
Experimental: The binding characteristics of 7A2 and its derivatives were measured using a GE Healthcare Biacore biosensor.

Row | IC50, inhibition of HGF/SF-induced migration of SKOV-3 cells, Assay 1 [1] | IC50, inhibition of HGF/SF-induced migration of SKOV-3 cells, Assay 3 [1] | Mean IC50, inhibition of HGF/SF-induced migration of SKOV-3 cells [1] | Kd [2] | koff [2] | kon [2] | IC50, inhibition of HGF/SF-induced migration of SKOV-3 cells, Assay 2 [1] | Binder
1 | 9.7 nM | 11.4 nM | 10.6 nM | 1.43 nM | 0.00123 s⁻¹ | 863000 M⁻¹ s⁻¹ |  | B1
2 | 9.7 nM | 3.1 nM | 7.4 nM | 1.23 nM | 0.00116 s⁻¹ | 949000 M⁻¹ s⁻¹ | 9.2 nM | B2
3 | 10.5 nM |  | 10.5 nM | 2.29 nM | 0.00192 s⁻¹ | 838000 M⁻¹ s⁻¹ |  | B3
4 | 9.6 nM | 2.6 nM | 13.1 nM | 1.23 nM | 0.00137 s⁻¹ | 1.12e+06 M⁻¹ s⁻¹ | 27 nM | B4
5 |  |  |  | 1.9 nM | 0.00128 s⁻¹ | 677000 M⁻¹ s⁻¹ |  | B5
6 |  |  |  | 2.23 nM | 0.00168 s⁻¹ | 756000 M⁻¹ s⁻¹ |  | B6
7 |  |  |  | 2.79 nM | 0.00161 s⁻¹ | 577000 M⁻¹ s⁻¹ |  | B7
8 |  |  |  | 2.29 nM | 0.00197 s⁻¹ | 860000 M⁻¹ s⁻¹ |  | B8
